The supplement of paper PMC10724198
± gives the standard deviation of the averaged measurements.

How the values were obtained:
Saccharomyces cerevisiae [1] = assay: protein stability index of tFT-peptide fusion (C-terminal peptide) (PSI (0-1 scale)); higher = more stable (slower turnover)
Experimental: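 MPS profiling in S. cerevisiae of the tFT-X12 degron library: putative degron peptides plus stable controls, 12 aa, fused to the C-terminus of a sfGFP-mCherry timer. Cells are FACS-sorted into 8 mCherry/sfGFP bins and deep-sequenced. PSI runs from 0 (unstable) to 1 (stable). Backgrounds are wild type, das1Δ and doa10Δ at 30 °C, and wild type, das1Δ, cdc34-1 and cdc53-1 at 37 °C; 2-3 technical replicates each.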

Saccharomyces cerevisiae [2] = assay: as above; conditions: genetic background: wild type; temperature: 30 C
[3] = genetic background: cdc34-1, temperature: 37 C
[4] = genetic background: cdc53-1, temperature: 37 C
[5] = genetic background: das1 deletion, temperature: 30 C
[6] = genetic background: das1 deletion, temperature: 37 C
[7] = genetic background: doa10 deletion, temperature: 30 C
[8] = genetic background: wild type, temperature: 30 C
[9] = genetic background: wild type, temperature: 37 C
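Note: PSI is a weighted mean of sequencing reads over stability bins, variants kept only with over 10 reads, mCherry proximal and sfGFP distal, peptide attached via GGGS linker.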

Sequence | protein stability index (Saccharomyces cerevisiae [1]; [3]) | protein stability index (Saccharomyces cerevisiae [1]; [4]) | protein stability index (Saccharomyces cerevisiae [1]; [5]) | protein stability index (Saccharomyces cerevisiae [1]; [6]) | protein stability index (Saccharomyces cerevisiae [1]; [7]) | protein stability index (Saccharomyces cerevisiae [1]; [8]) | protein stability index (Saccharomyces cerevisiae [1]; [9]) | protein stability index (Saccharomyces cerevisiae [2])
RLPRILVLVCLF | 0.231 ± 0.0089 | 0.318 ± 0.025 | 0.228 ± 0.04 | 0.383 ± 0.00011 | 0.169 ± 0.0018 | 0.163 ± 0.022 | 0.25 ± 0.0094 | 0.237 ± 0.017
YAFSTCTILIRF | 0.187 ± 0.0071 | 0.154 ± 0.044 | 0.211 ± 0.034 | 0.338 ± 0.015 | 0.38 ± 0.013 | 0.222 ± 0.018 | 0.3071 ± 0.0018 | 0.328 ± 0.048
YTQKFTFYGLPA | 0.701 ± 0.035 | 0.721 ± 0.013 | 0.639 ± 0.038 | 0.727 ± 0.013 | 0.618 ± 0.033 | 0.616 ± 0.016 | 0.708 ± 0.02 | 0.027 ± 0.023
LFLIYCFAFSIG | 0.258 ± 0.083 | 0.328 ± 0.032 | 0.22 ± 0.034 | 0.4171 ± 0.00091 | 0.194 ± 0.02 | 0.239 ± 0.021 | 0.366 ± 0.014 | 0.367 ± 0.049
QPTPQSALAKHQ | 0.655 ± 0.018 | 0.721 ± 0.04 | 0.6492 ± 0.005 | 0.731 ± 0.034 | 0.3327 ± 0.0025 | 0.337 ± 0.0054 | 0.544 ± 0.04 | 0.515 ± 0.04
NYCVFLSYLLFC | 0.362 ± 0.044 | 0.424 ± 0.025 | 0.318 ± 0.027 | 0.502 ± 0.0072 | 0.205 ± 0.012 | 0.215 ± 0.033 | 0.3961 ± 0.0034 | 0.301 ± 0.0096
PVALYPVQAYLT | 0.5565 ± 0.0049 | 0.71 ± 0.025 | 0.616 ± 0.012 | 0.715 ± 0.022 | 0.119 ± 0.01 | 0.146 ± 0.017 | 0.265 ± 0.094 | 0.2307 ± 0.0013
LAGLVRFWGCVG | 0.622 ± 0.022 | 0.7111 ± 0.0023 | 0.656 ± 0.015 | 0.748 ± 0.019 | 0.122 ± 0.019 | 0.141 ± 0.03 | 0.236 ± 0.0026 | 0.341 ± 0.0037
LRLCMVFAWFLT | 0.388 ± 0.011 | 0.508 ± 0.039 | 0.351 ± 0.029 | 0.493 ± 0.021 | 0.1836 ± 0.00086 | 0.216 ± 0.03 | 0.3924 ± 0.0028 | 0.337 ± 0.023
GGSLWLVHLKTI | 0.604 ± 0.059 | 0.761 ± 0.038 | 0.633 ± 0.035 | 0.718 ± 0.025 | 0.118 ± 0.026 | 0.158 ± 0.011 | 0.275 ± 0.082 | 0.181 ± 0.044
RRGGNIVWYCLV | 0.588 ± 0.025 | 0.694 ± 0.015 | 0.634 ± 0.0066 | 0.714 ± 0.011 | 0.125 ± 0.0088 | 0.148 ± 0.017 | 0.24 ± 0.0074 | 0.234 ± 0.017
GLLAEPALLLLS | 0.661 ± 0.06 | 0.699 ± 0.027 | 0.618 ± 0.0073 | 0.724 ± 0.023 | 0.604 ± 0.037 | 0.62 ± 0.025 | 0.6881 ± 0.0066 | 0.499 ± 0.1
LQNCRVSVLLGW | 0.5443 ± 0.0023 | 0.616 ± 0.011 | 0.485 ± 0.019 | 0.6275 ± 0.0042 | 0.229 ± 0.0028 | 0.246 ± 0.036 | 0.4536 ± 0.0025 | 0.367 ± 0.033
RISGSIVVRKRS | 0.673 ± 0.032 | 0.738 ± 0.011 | 0.642 ± 0.015 | 0.722 ± 0.019 | 0.425 ± 0.0081 | 0.45 ± 0.033 | 0.6333 ± 0.0061 | 0.554 ± 0.1
CFFFPCFSFRFL | 0.39 ± 0.0076 | 0.448 ± 0.012 | 0.416 ± 0.024 | 0.528 ± 0.015 | 0.377 ± 0.02 | 0.296 ± 0.011 | 0.453 ± 0.033 | 0.342 ± 0.041
RVRRETRLRQIA | 0.597 ± 0.0087 | 0.732 ± 0.043 | 0.65 ± 0.024 | 0.71 ± 0.021 | 0.1423 ± 0.00049 | 0.147 ± 0.0031 | 0.269 ± 0.0076 | 0.27 ± 0.047
KIKQIKINNKIN | 0.43 ± 0.0033 | 0.654 ± 0.13 | 0.703 ± 0.026 | 0.758 ± 0.043 | 0.0896 ± 0.034 | 0.092 ± 0.032 | 0.145 ± 0.04 | 0.157 ± 0.0073
LYVQSVCFSVPR | 0.463 ± 0.024 | 0.537 ± 0.017 | 0.445 ± 0.021 | 0.5091 ± 0.002 | 0.497 ± 0.052 | 0.431 ± 0.012 | 0.486 ± 0.0089 | 0.422 ± 0.012
MSRALSVLVVVA | 0.176 ± 0.029 | 0.211 ± 0.011 | 0.213 ± 0.036 | 0.323 ± 0.0062 | 0.172 ± 0.0091 | 0.22 ± 0.019 | 0.287 ± 0.029 | 0.312 ± 0.012
FPFPLSSFLLLY | 0.385 ± 0.015 | 0.401 ± 0.018 | 0.41 ± 0.032 | 0.516 ± 0.011 | 0.415 ± 0.028 | 0.331 ± 0.019 | 0.444 ± 0.0087 | 0.4195 ± 0.0039
IRHALHFRVVAV | 0.505 ± 0.035 | 0.545 ± 0.016 | 0.432 ± 0.015 | 0.568 ± 0.0082 | 0.3943 ± 0.0036 | 0.419 ± 0.013 | 0.5286 ± 0.0022 | 0.48 ± 0.0076
VCVWVDILAFCS | 0.0795 ± 0.016 | 0.245 ± 0.097 | 0.183 ± 0.026 | 0.278 ± 0.0048 | 0.147 ± 0.019 | 0.174 ± 0.019 | 0.252 ± 0.018 | 0.227 ± 0.05
FCCLIGYIWYGW | 0.45071 ± 0.00045 | 0.5083 ± 0.00082 | 0.392 ± 0.041 | 0.527 ± 0.013 | 0.344 ± 0.0071 | 0.363 ± 0.011 | 0.514 ± 0.039 | 0.488 ± 0.019
FLFQYLCIISSL | 0.0463 ± 0.007 | 0.166 ± 0.037 | 0.133 ± 0.046 | 0.233 ± 0.023 | 0.0866 ± 0.028 | 0.0716 ± 0.026 | 0.161 ± 0.013 | 0.217 ± 0.037
WCVRRVRFVMGC | 0.414 ± 0.019 | 0.458 ± 0.05 | 0.316 ± 0.024 | 0.479 ± 0.0081 | 0.2183 ± 0.0013 | 0.234 ± 0.027 | 0.378 ± 0.013 | 0.31 ± 0.0046
LVIFSLLFSFSH | 0.22 ± 0.011 | 0.325 ± 0.047 | 0.212 ± 0.032 | 0.394 ± 0.018 | 0.194 ± 0.0075 | 0.232 ± 0.015 | 0.3837 ± 0.00069 | 0.32 ± 0.028
GWVVVVCGVCCG | 0.178 ± 0.0072 | 0.22 ± 0.033 | 0.208 ± 0.026 | 0.307 ± 0.016 | 0.167 ± 0.0077 | 0.196 ± 0.024 | 0.28 ± 0.012 | 0.285 ± 0.011
ISAVLFFLYLSF | 0.163 ± 0.008 | 0.108 ± 0.019 | 0.24 ± 0.018 | 0.326 ± 0.0042 | 0.459 ± 0.035 | 0.246 ± 0.017 | 0.272 ± 0.009 | 0.308 ± 0.025
PALVVALLASVL | 0.584 ± 0.018 | 0.646 ± 0.039 | 0.505 ± 0.022 | 0.60007 ± 0.00036 | 0.347 ± 0.015 | 0.386 ± 0.029 | 0.504 ± 0.0057 | 0.485 ± 0.011
KSRLFCFVYFLL | 0.333 ± 0.011 | 0.413 ± 0.013 | 0.311 ± 0.032 | 0.501 ± 0.007 | 0.137 ± 0.0024 | 0.141 ± 0.02 | 0.17 ± 0.0063 | 0.167 ± 0.013
